# Results taken from article PMC2652359.
# Biological target: human factor Xa (human)
# Assay: functional titration of prothrombinase activity
# Sequence of human factor Xa (human) (P00742 whole entry): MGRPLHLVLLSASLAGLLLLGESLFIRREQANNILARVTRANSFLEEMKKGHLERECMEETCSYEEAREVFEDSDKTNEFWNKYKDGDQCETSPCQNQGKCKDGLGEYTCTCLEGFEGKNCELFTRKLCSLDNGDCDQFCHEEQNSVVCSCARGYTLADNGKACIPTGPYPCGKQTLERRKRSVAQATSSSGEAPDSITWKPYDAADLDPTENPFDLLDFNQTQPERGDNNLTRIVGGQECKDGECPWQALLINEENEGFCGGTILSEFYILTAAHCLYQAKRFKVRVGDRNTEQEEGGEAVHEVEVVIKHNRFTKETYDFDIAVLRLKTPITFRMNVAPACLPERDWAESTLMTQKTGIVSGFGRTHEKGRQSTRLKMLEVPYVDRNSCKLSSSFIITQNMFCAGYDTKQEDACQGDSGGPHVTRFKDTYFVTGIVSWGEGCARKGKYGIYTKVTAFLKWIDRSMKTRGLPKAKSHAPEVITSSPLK
substance,measurement,value
recombinant wild-type human factor Va (from UniProt P12259 29-737; P12259 1574-2224) (natural protein),Kd,0.24 nM
